The values that follow come from paper PMC7045643, “Allosteric inhibition of CRISPR-Cas9 by bacteriophage-derived peptides” (Genome Biology, 2020).

For this test, the system named is catalytically inactive Cas9 (dCas9). The experiment in a line: ChIP-qPCR of dCas9 binding at AAVS1 on-target and off-target sites in Hela cells. It counts as cell-based. As to conditions: AAVS1 on target and pre-determined off-target sites, two biological replicates, Fig. S9. The procedure:
For ChIP experiments, low-passage Hela cells were seeded on to 15-cm plates at a density of 4 × 10^6 cells per plate. The next day, a total of 40.5 μg M13 G8PPD or M13 G8PFL plasmid, 20.25 μg 3×Flag-tagged dCas9 plasmid, and 20.25 μg sgRNA plasmid were transfected into cells using Lipofectamine 3000 (Invitrogen). Two biological replicates were performed for each condition. ChIP was performed with Simple ChIP Enzymatic Chromatin IP Kit (Cell Signaling Technology) following the manufacturer’s instructions. After 48 h, the cells were washed once with PBS, and 1.25 mL of 16% formaldehyde (Life Technologies) was added to 20 mL of serum-free DMEM for crosslinking to a final formaldehyde concentration of 1%. After 10 min of crosslinking at room temperature, the cells were harvested for the ChIP assay. The chromatin was sonicated using Branson digital sonifier for 10 cycles of “on/off” pulse with a 30-s interval. Fragmented chromatin was diluted and incubated with 2 μg anti-Flag Chip grade antibody (Sigma, USA) overnight at 4 °C. qPCR with immunoprecipitation-purified DNA as the template was used to analyze the effects of G8Ps on dCas9 binding at the on-target and off-target sites.

B1: M13 G8PFL: full-length M13 phage major coat protein G8P, expressed from plasmid in human cells (protein, UniProt P03619 1-74, looked up)
chain: MKKSVVAKIIAGSTLVIGSSAFAADDATSQAKAAFDSLTAQATEMSGYAWALVVLVVGATVGIKLFKKFVSRAS
modifications: full-length
notes: full-length M13 phage major coat protein G8P, expressed from plasmid in human cells
For the molecule B1, the “binding specificity of dCas9 at on-target site” value was “did not significantly improve”.
